In publication PMC6458971:

Target: AviTagged clade B YU-2 gp140 trimers (HIV-1 clade B, strain YU-2 | not stated)
Assay: SEC

“AviTagged clade B YU-2 gp140 trimers (domain or fragment)” showed a stoichiometry N of 3.
